What was measured:
Assay in all cases: cell-based or functional assay
[1] = target: HIV-1 Env of pseudovirus 0260.v5.c36 (HIV-1)
[2] = target: HIV-1 Env of pseudovirus 0815.v3.c3 (HIV-1)
[3] = target: HIV-1 Env of pseudovirus 211-9 (HIV-1)
[4] = target: HIV-1 Env of pseudovirus 231966.c02 (HIV-1)
[5] = target: HIV-1 Env of pseudovirus 3415.v1.c1 (HIV-1)
[6] = target: HIV-1 Env of pseudovirus 3817.v2.c59 (HIV-1)
[7] = target: HIV-1 Env of pseudovirus 6240_08_TA5_4622 (HIV-1)
[8] = target: HIV-1 Env of pseudovirus 6244_13_B5_4576 (HIV-1)
[9] = target: HIV-1 Env of pseudovirus 6480.v4.c25 (HIV-1)
[10] = target: HIV-1 Env of pseudovirus 6540.v4.c1 (HIV-1)
[11] = target: HIV-1 Env of pseudovirus 6545.v4.c1 (HIV-1)
[12] = target: HIV-1 Env of pseudovirus 9004SS_A3_4 (HIV-1)
[13] = target: HIV-1 Env of pseudovirus BJOX009000.02.4 (HIV-1)
[14] = target: HIV-1 Env of pseudovirus BJOX028000.10.3 (HIV-1)
[15] = target: HIV-1 Env of pseudovirus C1080.c03 (HIV-1)
[16] = target: HIV-1 Env of pseudovirus C4118.c09 (HIV-1)
[17] = target: HIV-1 Env of pseudovirus CAAN5342.A2 (HIV-1)
[18] = target: HIV-1 Env of pseudovirus CAP45.2.00.G3 (HIV-1)
[19] = target: HIV-1 Env of pseudovirus CNE17 (HIV-1)
[20] = target: HIV-1 Env of pseudovirus CNE5 (HIV-1)
[21] = target: HIV-1 Env of pseudovirus CNE58 (HIV-1)
[22] = target: HIV-1 Env of pseudovirus Ce0682_E4 (HIV-1)
[23] = target: HIV-1 Env of pseudovirus Ce1172_H1 (HIV-1)
[24] = target: HIV-1 Env of pseudovirus HIV-001428-2.42 (HIV-1)
[25] = target: HIV-1 Env of pseudovirus HIV-16055-2.3 (HIV-1)
[26] = target: HIV-1 Env of pseudovirus Q259.d2.17 (HIV-1)
[27] = target: HIV-1 Env of pseudovirus R1166.c01 (HIV-1)
[28] = target: HIV-1 Env of pseudovirus R2184.c04 (HIV-1)
[29] = target: HIV-1 Env of pseudovirus REJO4541.67 (HIV-1)
[30] = target: HIV-1 Env of pseudovirus T278-50 (HIV-1)
[31] = target: HIV-1 Env of pseudovirus WITO4160.33 (HIV-1)
[32] = target: HIV-1 Env of pseudovirus X1254_c3 (HIV-1)

B1: N49P22 (antibody, V domains shown)
V domain 1: HIQLLQSGPQVKKSGDTVRISCETSGYNFVDSRIHWVRQTPEKRLRWMGWINPLQGGVNYAPEFQGRIRMTRDTFIDTVYVDLSGLTPADTAYYYCARGIDGKSYPFHFWGHGTRVTVFS
V domain 2: RFALTQPASVSGSPGQTITITCAGGSVSWFHFPPGKTPRLIIYESSKRPSGVSPRFSGSQSGSTASLIISGLQSDDEGTYFCSILEFFGRGTLVTVLS
- IC50 [1]: 1.67 µg/mL
- IC80 [1]: 14.4 µg/mL
- MPI [1]: 93
- IC50 [2]: 0.161 µg/mL
- IC80 [2]: 1.08 µg/mL
- MPI [2]: 98
- IC50 [3]: > 50 µg/mL
- IC80 [3]: > 50 µg/mL
- MPI [3]: 18
- IC50 [4]: 3.35 µg/mL
- IC80 [4]: > 50 µg/mL
- MPI [4]: 69
- IC50 [5]: 0.198 µg/mL
- IC80 [5]: 1.41 µg/mL
- MPI [5]: 96
- IC50 [6]: > 50 µg/mL
- IC80 [6]: > 50 µg/mL
- MPI [6]: 12
- IC50 [7]: 2.33 µg/mL
- IC80 [7]: 9.76 µg/mL
- MPI [7]: 93
- IC50 [8]: 0.565 µg/mL
- IC80 [8]: 2.48 µg/mL
- MPI [8]: 97
- IC50 [9]: 0.809 µg/mL
- IC80 [9]: 32.1 µg/mL
- MPI [9]: 86
- IC50 [10]: > 50 µg/mL
- IC80 [10]: > 50 µg/mL
- MPI [10]: 29
- IC50 [11]: > 50 µg/mL
- IC80 [11]: > 50 µg/mL
- MPI [11]: 17
- IC50 [12]: > 50 µg/mL
- IC80 [12]: > 50 µg/mL
- MPI [12]: 42
- IC50 [13]: 17.3 µg/mL
- IC80 [13]: > 50 µg/mL
- MPI [13]: 64
- IC50 [14]: > 50 µg/mL
- IC80 [14]: > 50 µg/mL
- MPI [14]: 0
- IC50 [15]: 15.9 µg/mL
- IC80 [15]: > 50 µg/mL
- MPI [15]: 64
- IC50 [16]: 1.82 µg/mL
- IC80 [16]: 26.6 µg/mL
- MPI [16]: 93
- IC50 [17]: 0.425 µg/mL
- IC80 [17]: 1.88 µg/mL
- MPI [17]: 99
- IC50 [18]: > 50 µg/mL
- IC80 [18]: > 50 µg/mL
- MPI [18]: 0
- IC50 [19]: 46.3 µg/mL
- IC80 [19]: > 50 µg/mL
- MPI [19]: 53
- IC50 [20]: 0.281 µg/mL
- IC80 [20]: 1.55 µg/mL
- MPI [20]: 96
- IC50 [21]: 28.4 µg/mL
- IC80 [21]: > 50 µg/mL
- MPI [21]: 57
- IC50 [22]: 1.13 µg/mL
- IC80 [22]: > 50 µg/mL
- MPI [22]: 75
- IC50 [23]: > 50 µg/mL
- IC80 [23]: > 50 µg/mL
- MPI [23]: 0
- IC50 [24]: 0.73 µg/mL
- IC80 [24]: 7.1 µg/mL
- MPI [24]: 91
- IC50 [25]: 4.66 µg/mL
- IC80 [25]: 39.7 µg/mL
- MPI [25]: 83
- IC50 [26]: > 50 µg/mL
- IC80 [26]: > 50 µg/mL
- MPI [26]: 15
- IC50 [27]: 0.232 µg/mL
- IC80 [27]: 0.799 µg/mL
- MPI [27]: 100
- IC50 [28]: 0.077 µg/mL
- IC80 [28]: 0.342 µg/mL
- MPI [28]: 100
- IC50 [29]: 0.792 µg/mL
- IC80 [29]: 12.1 µg/mL
- MPI [29]: 84
- IC50 [30]: > 50 µg/mL
- IC80 [30]: > 50 µg/mL
- MPI [30]: 25
- IC50 [31]: 4.86 µg/mL
- IC80 [31]: > 50 µg/mL
- MPI [31]: 74
- IC50 [32]: 3.06 µg/mL
- IC80 [32]: 29.8 µg/mL
- MPI [32]: 84
